# Laboratory results as given in patent publication US20110027794.
# Experiments:
# [1] = test system: unnamed basic selection target protein (pI 9, 9 kDa); experiment: SELEX; conditions: 2'-F at all nucleotides; 0.89% bound with protein vs 0.48% without after 4 rounds; 20 mM Tris pH 7.4, 150 mM NaCl, 4 mM KCl, 1 mM MgCl2, 1 mM CaCl2, 0.1% Tween-20, 37 C
# DNase I = DNase I (UniProt P00639); experiment: cleavage_in_vitro; conditions: 2'-F at all nucleotides; 100 mM NaOAc, 5 mM MgCl2, 37 C, 5 min
# DNase I, sequence (P00639 23-282): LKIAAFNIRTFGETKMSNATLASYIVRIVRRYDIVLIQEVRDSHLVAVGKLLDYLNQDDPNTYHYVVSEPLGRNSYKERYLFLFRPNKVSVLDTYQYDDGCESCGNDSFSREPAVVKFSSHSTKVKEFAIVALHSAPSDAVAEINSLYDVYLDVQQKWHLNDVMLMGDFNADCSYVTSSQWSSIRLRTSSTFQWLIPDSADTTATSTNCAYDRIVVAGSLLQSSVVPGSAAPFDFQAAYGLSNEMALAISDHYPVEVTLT
Sequence,binding signal (fold over no-protein control) [1],binding signal (fold more stable than DNA) (DNase I)
"GTGGAACCGACAGTGGTACGTGNNNNNNNNNNNNNNNNNNNNNNNNNNNNNNNNNNNNNNNNCACGAGTGAAGTCTGAGCTCC [BSA-1C FNA pool, selection round 4]",1.85,–
NNNNNNNNNNNNNNNNNNNNNNNNNNNNNNNNNNNNNNNNCACGAGTGAAGTCTGAGCTCC,–,> 100
